Measurements reported in patent US20110131688A1 (SALK INSTITUTE FOR BIOLOGICAL STUDIES, published 2011).

T1: EIN3 full-length protein (ETHYLENE-…3 transcription factor) (Arabidopsis, UniProt O24606 1-628)
T1 construct: Full-length EIN3 in the direct yeast two-hybrid tests, cloned in pAS2 or pACT2; In the immunoblots it is the endogenous or overexpressed EIN3 from plant extracts; also called At3g20770
T1 sequence: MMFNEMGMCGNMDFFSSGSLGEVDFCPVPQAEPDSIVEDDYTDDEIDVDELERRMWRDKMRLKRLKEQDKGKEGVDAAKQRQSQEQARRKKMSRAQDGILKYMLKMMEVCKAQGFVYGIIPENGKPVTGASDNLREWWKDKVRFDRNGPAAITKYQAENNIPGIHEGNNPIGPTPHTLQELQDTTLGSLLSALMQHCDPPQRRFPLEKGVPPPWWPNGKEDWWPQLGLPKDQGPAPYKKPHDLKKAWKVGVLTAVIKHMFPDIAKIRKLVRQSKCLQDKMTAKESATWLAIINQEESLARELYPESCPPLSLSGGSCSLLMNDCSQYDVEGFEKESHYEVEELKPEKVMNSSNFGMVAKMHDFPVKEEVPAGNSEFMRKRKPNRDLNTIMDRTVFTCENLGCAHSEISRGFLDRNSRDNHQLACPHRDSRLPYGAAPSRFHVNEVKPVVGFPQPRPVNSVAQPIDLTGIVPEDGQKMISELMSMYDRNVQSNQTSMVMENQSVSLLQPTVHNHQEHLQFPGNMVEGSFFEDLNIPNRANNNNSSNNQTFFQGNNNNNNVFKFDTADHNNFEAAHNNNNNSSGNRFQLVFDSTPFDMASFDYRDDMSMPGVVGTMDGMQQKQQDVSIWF

B1: EBF1 (EIN3-binding F-box protein 1) (other)
chain: MSQIFSFAGENDFYRRGAIYPNPKDASLLLSLGSFADVYFPPSKRSRVVAPTIFSAFEKKPVSIDVLPDECLFEIFRRLSGPQERSACAFVSKQWLTLVSSIRQKEIDVPSKITEDGDDCEGCLSRSLDGKKATDVRLAAIAVGTAGRGGLGKLSIRGSNSAKVSDLGLRSIGRSCPSLGSLSLWNVSTITDNGLLEIAEGCAQLEKLELNRCSTITDKGLVAIAKSCPNLTELTLEACSRIGDEGLLAIARSCSKLKSVSIKNCPLVRDQGIASLLSNTTCSLAKLKLQMLNVTDVSLAVVGHYGLSITDLVLAGLSHVSEKGFWVMGNGVGLQKLNSLTITACQGVTDMGLESVGKGCPNMKKAIISKSPLLSDNGLVSFAKASLSLESLQLEECHRVTQFGFFGSLLNCGEKLKAFSLVNCLSIRDLTTGLPASSHCSALRSLSIRNCPGFGDANLAAIGKLCPQLEDIDLCGLKGITESGFLHLIQSSLVKINFSGCSNLTDRVISAITARNGWTLEVLNIDGCSNITDASLVSIAANCQILSDLDISKCAISDSGIQALASSDKLKLQILSVAGCSMVTDKSLPAIVGLGSTLLGLNLQQCRSISNSTVDFLVERLYKCDILS
notes: In the yeast two-hybrid assays the cDNA was cloned into pAS2 or pACT2 (Clontech), so the protein was a fusion with the vector's domain; also called FBL6; At2g25490
B2: ASK1, an Arabidopsis Skp1 protein (other, UniProt Q39255 1-160, looked up)
chain: MSAKKIVLKSSDGESFEVEEAVALESQTIAHMVEDDCVDNGVPLPNVTSKILAKVIEYCKRHVEAAASKAEAVEGAATSDDDLKAWDADFMKIDQATLFELILAANYLNIKNLLDLTCQTVADMIKGKTPEEIRTTFNIKNDFTPEEEEEVRRENQWAFE
notes: Yeast two-hybrid fusion in pAS2 or pACT2
B3: EBF2 (EIN3-binding F-box protein 2) (other)
chain: MSGIFRFSGDEDCLLGGSMYLSPGSCPGVYYPARKRLRVAATSFYSGFEEKQTSIDVLPEECLFEILRRLPSGQERSACACVSKHWLNLLSSISRSEVNESSVQDVEEGEGFLSRSLEGKKATDLRLAAIAVGTSSRGGLGKLQIRGSGFESKVTDVGLGAVAHGCPSLRIVSLWNLPAVSDLGLSEIARSCPMIEKLDLSRCPGITDSGLVAIAENCVNLSDLTIDSCSGVGNEGLRAIARRCVNLRSISIRSCPRIGDQGVAFLLAQAGSYLTKVKLQMLNVSGLSLAVIGHYGAAVTDLVLHGLQGVNEKGFWVMGNAKGLKKLKSLSVMSCRGMTDVGLEAVGNGCPDLKHVSLNKCLLVSGKGLVALAKSALSLESLKLEECHRINQFGLMGFLMNCGSKLKAFSLANCLGISDFNSESSLPSPSCSSLRSLSIRCCPGFGDASLAFLGKFCHQLQDVELCGLNGVTDAGVRELLQSNNVGLVKVNLSECINVSDNTVSAISVCHGRTLESLNLDGCKNITNASLVAVAKNCYSVNDLDISNTLVSDHGIKALASSPNHLNLQVLSIGGCSSITDKSKACIQKLGRTLLGLNIQRCGRISSSTVDTLLENLWRCDILY
notes: In the yeast two-hybrid assays the cDNA was cloned into pAS2 or pACT2 (Clontech), so the protein was a fusion with the vector's domain; also called AAR27072.1

Tests used:
[1] = target: T1, EIN3 full-length protein (ETHYLENE-…3 …); experiment: yeast two-hybrid, filter-lift beta-galactosidase
Excerpt: (§1) We then directly tested the possible interaction between EIN3 full-length protein and individual F-box proteins. Using genome-wide microarray experiments, we narrowed the search for EIN3-interacting F-box proteins by first testing those genes whose RNA levels were regulated by ethylene (Alonso et al., Science 301, 653-657, 2003; H. G. and J. R. E., unpublished data). From this gene list, two closely related candidate F-box proteins were identified which were able to interact with EIN3 in yeast two-hybrid assays (FIGS. 4C and 4E). We designated these two F-box proteins as EBF1 and EBF2 (for EIN3-binding F-box protein 1 and 2). EBF1 was previously named as FBL6 with no function assigned (Xiao and Jang, 2000). These two proteins share 57% identity in amino acid sequence (FIG. 4A), and each contains a well-conserved F-box motif in the amino-terminus and 18 tandem leucine-rich repeats (LRRs) in the carboxyl terminus (FIGS. 4A and 4B). Because LRR domains in several F-box proteins contribute to the substrate binding (Gagne et al., Proc Natl Acad Sci 99, 11519-11524, 2002), we tested whether the C-terminal LRR domains in EBF1 and EBF2 were sufficient for EIN3 interaction. […]

[2] = target: B1; experiment: yeast two-hybrid
Excerpt: as §1

[3] = target: B3; experiment: yeast two-hybrid
Excerpt: as §1

[4] = target: T1, EIN3 full-length protein (ETHYLENE-…3 …); experiment: yeast two-hybrid (summary in Example 8)
Excerpt: as §1

B1: binds [1].

B2: binds [2]; binds [3].

B3: binds [4].
